B1: LINE1-full (parent)
chain: UACGUAGGUGGUUUUCCCCUGAUAGUGCUAAGGGGGCCUGGAAGUUUGGACUGGGCAGAGCUCAACACAGCGUGGCAAAGUGGCUGUGGCUAGACUGCCUCUCUGGAUUCCUCGUCACUCAGCAGGGCAUCUCUGAGAGAAAUGCC

Variants of: B1
Experiment: self-cleavage, relative activity (ratio to wild type); higher = more cleavage; in vitro, sequencing; the parent is a self-cleaving ribozyme

Variant	self-cleavage
U20A A69C	0.06
U47A C63U	0.33
G53A U85A	0.14
U5C U108C	1.57
C17A U108C	1.96
U62G U87A	0.1
A59G C116U	0.07
U100C U130G	1.02
A50G U109A	0.84
U14C U15C	1.27
U23C U112A	1.37
A57U U109C	0.03
U26A A94G	0.24
U26C U52A	1.53
G41A U85G	0.09
G41A U85C	0.05
U9A U87C	0.19
U20C A65G	0.06
A57G U73C	1.17
A129G U134G	1.65
U39A U132C	1.38
U91C U112A	0.42
A69U A141U	0.05
G25A U109A	1.72

Variant	self-cleavage
C17U U62C	0.04
U132A A140G	1.41
U52G A124G	1.57
G127C U132C	1.99
U20A U119A	1.47
C68U U85C	0.03
A24G A94G	0.31
G10A U104A	0.91
U13C C146U	1.64
U46C G114U	1.12
U1C U81C	0.85
U39G U112A	1.65
A22G A140U	1.05
A30U A140U	0.67
U14C G82A	1.35
U23C A121U	0.66
U91C C118U	0.67
U26C A65G	0.13
A50G A59U	0.84
G60A U143A	0.05
A50G C113A	0.35
C18G A65U	0.28
C37U U96A	0.04
A30G A78U	1.44

Variant	self-cleavage
G127A A141G	0.99
U119A G144A	1.68
U14C G125A	1.46
U26C C95U	0.24
A6G U73C	1.34
A30G A43G	0.78
U52C G80A	1.82
G70U U112A	0.05
A67G G74U	0.54
U62C U87A	0.04
A141G C146U	1.31
U29C G82A	1.44
G58A U96C	0.04
U26A U46C	1.45
A22U A31G	1.04
U104C A121G	1.56
A42U U115A	1.39
G4A A124U	0.53
U12C	1.29
U26C A50G	1.14
G80A G89A	0.07
U62C U130C	0.06
G32U U85A	0.09
U45C A117U	1.36

Variant	self-cleavage
A124G A136C	1.19
A92C U130A	0.28
A2U U85A	0.04
U132C C133A	1.14
G74U U130C	1.64
A67C A117G	0
A78U A79G	0.74
G7A A57U	0.07
U100A A142C	1
A6G	0.91
A30G G135A	1.4
G8A G44A	1.08
G75A U134A	1
C95A U112C	0.05
U85G U143C	0.13
A42G A129G	1.68
G54A A107G	0.47
A2G U26A	0.84
G8A U96C	0.15
G72U U91A	0.49
U20A U52A	0.54
C56U U132C	0.2
A124U A129G	1.72
U5A A64C	0.19

Variant	self-cleavage
A22G C37U	0.94
U15C G144U	1.61
A79G G125C	1.28
U91C A94U	0.2
U26A A92G	0.05
G21A A65U	0.21
U14C G40A	0.85
U85A A129U	0.12
U39A G105U	1.23
A22U A30G	1.98
U14A A79G	0.8
G34U U134A	1.04
U14A U96G	0
U112C A141U	1.47
G60A G72A	0.01
U85G U134C	0.16
U20A A117G	1.94
C38A A121U	1.42
U15A C118U	0.49
G8U A59G	0.12
U26C A138U	1.57
U9C G105A	1.47
A69U A79G	0.05
U23C G35A	1.4

Variant	self-cleavage
A59U U87C	0.22
U5A G49A	0.5
G10A A65G	0.02
A31U A78G	0.94
C66A A107U	0.05
G48U U132C	1.12
U100C A117U	1.63
G32A A138G	1.16
G35C U132C	1.53
A67C U134A	0.02
U13C U87A	0.1
C103U U109C	0.53
A69G A129G	0.58
A57G U132A	1.29
A77G C128G	1.86
U23C U100A	1.3
U15C U102A	0.19
U12G A136G	1.72
G4U A138U	1.19
U13C A79U	1.53
G35A A77U	0.8
G40C A42G	1.09
U39A U130A	1.38
U46C A92G	0.29

Variant	self-cleavage
A64C U132C	0.34
G80A G86A	0.05
U13A A124U	0.98
U1C U85A	0.03
C76A U87C	0.38
U62A A138G	0.06
A42U A140U	1.05
U87C G106U	0.26
C19G U52A	1.16
U73G U85G	0.06
G4C A77G	2.9
U14A U23A	0.72
U20C C98A	0.07
U46A A64G	0.18
U73A C95G	0.06
U26A C90U	0.04
C76U A129G	2.87
A6G U20A	1.05
U12A C51A	1.16
U23C G34U	1.44
U23C G34A	1.26
C61U A141G	0.05
G41U U100C	1.28
U96C U108C	0.17

Variant	self-cleavage
G126A U130C	1.41
U100C U143G	2.85
C3U U29A	1.07
A67G A138G	0.67
U85C U132C	0.24
U100C C118A	2
A79C U91A	0.94
U26C C131A	0.78
U52A U130C	1.42
A43U A50G	1.29
C38U A69G	0.49
G32A U143C	1.4
U47C A79U	1.76
C3U A94G	0.54
U39A A77G	2.32
A69G G106A	0.61
A50U A138C	1.21
A30U A94U	0.34
U73C U96G	0.19
A43G A129U	0.95
A43U G89A	0.06
G48A U112A	0.83
G32A A142G	1.22
A117U A129C	1.23

Variant	self-cleavage
A117U A129U	1.78
U13C A94U	0.42
U9A U73C	0.94
U108C G125A	1.22
C16U U20A	1.02
A22G A129G	1.45
U112A A136U	1.67
A43G A141U	1.61
U5G	0.76
U5C	1.06
A57G A117U	0.79
G40U U102C	1
U20C U26C	1.26
G8A A43G	1.08
U45C C131U	0.93
U9G A65G	0.25
A117G G125U	1.47
A121G A140U	1.45
U47A U91C	0.63
U1A G11A	1.76
G34U A129G	1.98
U26C U87C	0.26
G49U G127A	0.27
U20A G53U	1.1

Variant	self-cleavage
A31G U39C	1.17
U1A U47C	1.02
U119C A140U	0.97
G80U U132A	2.3
U13C U108A	0.91
U26A A69U	0.08
U143A G144A	1.4
U39A A107G	1.42
U132C U143C	1.24
G40A A79U	1.13
A121U C133U	1.8
U73A G137A	1.7
A64U A69U	0.07
U26C U73G	0.97
U13A A31C	1.52
A69G U143C	0.5
A79C A138U	2.19
U12C A124U	1.29
U13C U104A	1.18
A107G A117U	1.85
G8A A138G	2.47
G36U U52A	0.64
G48U U108C	1.27
A92G G114A	0.1

Variant	self-cleavage
A77U G125U	1.5
A31G A69G	0.78
U9A U91A	0.53
U81C U109C	0.38
A69C A142C	0.13
A22C A129U	1.96
U9A U108A	1.01
C37A A94C	0.06
A67G U134A	0.39
U20C A69G	0.66
A24U U119G	2.22
G10A G97A	0.09
A2G U132C	1.04
G8A	1.45
U9G G93U	0.05
G105A A141G	0.87
A64G G97C	0.11
G35A U52A	0.86
A22C A140G	1.65
U108A U134C	1.19
U12C U23A	1.08
A129G C145U	0.99
U91A A142G	0.63
U20A U85C	0.09

Variant	self-cleavage
A92G A140G	0.15
U20C A22G	1.04
A22U	1.11
U13A A43G	0.96
A50C A117U	0.92
A22G U91C	0.65
C76U A117U	2.41
G25A U143A	1.12
C95U A124U	0.2
G11A U26C	1.4
U12G G21A	1.19
A24G U29C	1.41
A30C	1.27
G27U G82A	1.51
A79G G114A	1.23
A59U A65G	0.03
C63A U104C	0.07
U15C G97A	0.06
U108C U115A	1.86
U15A A121U	1.35
C71A U132C	0.15
U9C G83U	0.94
G106A U108C	1.61
U1C A129G	1.38

Variant	self-cleavage
G8U U14C	2.04
G8A U109C	1.21
U29A A59G	0.16
U91C C113A	0.82
U29A A121C	0.84
U9C U112G	2.63
U112C G122U	1.86
C19U A43U	1.41
A2U A129G	0.72
U13G A57G	1.05
U26C U96C	0.29
U115C A117U	1.79
U23A A31C	1.31
U91C U108C	0.62
A30G U47A	1.57
A78U A136C	2.73
C18U C71A	0.09
G88A U91C	0.05
G7U U14C	1.39
U14A U112A	1.33
A92G U132C	0.05
U91C A140C	0.38
G93A U108C	0.03
A121G U134A	1.32

Variant	self-cleavage
U45A U112C	1.36
G35C U47C	1.84
G105U U109C	1.93
U1A U85G	0.12
A30U U119C	0.5
U109A U134G	1.25
A69U A138G	0.07
U14C A79G	0.84
A50G U91C	0.35
U26A A57C	0.02
A50U U134A	0.92
C118A G125U	1.03
C38A U143G	1.43
A124C U132C	1.11
A43C A92G	0.18
U87C U134C	0.11
A42G A142G	1.48
A31C A129U	1.51
A65G U102C	0.08
G21A A31U	1.43
G41A	1.16
U15C C146G	1.45

Reference: the RNAGym collection of RNA variant scans (doi:10.7554/elife.90254)
